Test results from PMC3253120 (PLoS ONE, 2012).

B1: ciA-D1 (VHH)
VHH: QVQLVESGGGLVQPGGSLRLSCATSGFTLEYYAIGWFRQAPGKGREGVACMNSSGGGTNYADSVKGRFTISRDNAKKMVYLQMNSLKSEDTAVYYCVVDDFRCGSRWAAYLRSSWGQGTQVTVSS
notes: also called JDT-2; source: E. coli, purified as a thioredoxin fusion protein
B2: ciA-H4 (VHH)
VHH: SGGGLVQSGGSLRLSCAASVLTLEYYAIGWFRQAPGKEREGISCTGSSGGSTVYIDSVKGRFTVVRDNAKNMVYLQMDSLQPEDTAVYYCAADDLRCGRGWSSYFRGSWGQGTQVTVSS
notes: also called JEC-3; source: E. coli, purified as a thioredoxin fusion protein
B3: ciA-H11 (VHH)
VHH: QVQLVESGGGLVQPGGSLRLSCTASTLTLNYYAIGWFRQAPGKEREGVSCTGSSGGSTVYIDSVKGRFTVVRDNAKNMVYLQMDSLQPEDTAVYYCAADDLRCGRGWSSYFRGSWGQGTQVTVSS
notes: also called JEC-11; source: E. coli, purified as a thioredoxin fusion protein

Biological target: purified recombinant BoNT/A light chain (Lc) (Clostridium botulinum)
Test: ELISA
Details: both partners purified

Binder | binding result
B1 | binds
B2 | binds
B3 | binds
